For three molecules, Mean fluorescence intensity and OD450 results are on record in patent publication US20220033501A1 (SHANGHAI PHARMAEXPLORER, published 2022).

In assay [1] the target is T1, monkey TIM-3 on CHOK1 stable cell line (CHOK1-cTIM-3) (monkey).
T1 chain: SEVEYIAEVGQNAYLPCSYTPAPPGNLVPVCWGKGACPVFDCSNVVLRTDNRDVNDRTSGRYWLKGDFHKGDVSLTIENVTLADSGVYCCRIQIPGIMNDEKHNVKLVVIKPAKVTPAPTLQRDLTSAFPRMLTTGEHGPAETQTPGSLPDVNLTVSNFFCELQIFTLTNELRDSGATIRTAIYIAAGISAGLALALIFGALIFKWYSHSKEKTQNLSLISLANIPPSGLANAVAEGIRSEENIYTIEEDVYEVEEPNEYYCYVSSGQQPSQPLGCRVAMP
In words: FACS, CHOK1-cTIM-3 cells, 0 nM antibody. (In general: Flow cytometry measures light scatter and fluorescence of single cells or particles in a stream.)

Assay [2] deals with T2, monkey TIM-3 extracellular domain protein with hFc tag (cTIM-3-hFc) (monkey).
T2 construct: not shown: human IgG Fc fragment (hFc) of the pCpC vector
T2 chain: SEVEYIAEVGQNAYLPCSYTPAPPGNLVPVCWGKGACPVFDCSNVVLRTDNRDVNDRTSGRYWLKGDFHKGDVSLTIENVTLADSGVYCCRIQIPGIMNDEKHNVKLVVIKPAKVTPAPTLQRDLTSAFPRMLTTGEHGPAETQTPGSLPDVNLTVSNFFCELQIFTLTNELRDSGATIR
Description: ELISA, coated monkey TIM-3 ECD protein, 0.6667 nM antibody.

In assay [3] the target is T3, human TIM-3 extracellular domain protein with hFc tag (hTIM-3-hFc) (human, UniProt Q8TDQ0 22-200).
T3 construct: not shown: human IgG Fc fragment (hFc) of the pCpC vector
T3 sequence: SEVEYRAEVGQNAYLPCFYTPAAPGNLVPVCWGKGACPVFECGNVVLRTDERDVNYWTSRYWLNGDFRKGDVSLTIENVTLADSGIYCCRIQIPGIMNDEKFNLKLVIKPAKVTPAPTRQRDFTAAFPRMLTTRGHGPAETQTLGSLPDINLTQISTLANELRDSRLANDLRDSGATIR
In words: ELISA, coated human TIM-3 ECD protein, 0 nM antibody. Background: In an ELISA, binding on a coated surface is turned into a signal by an enzyme label.

Assay [4] addresses T3, human TIM-3 extracellular domain …. In words: ELISA, coated human TIM-3 ECD protein, 66.667 nM antibody.
The target of assay [5] is T1, monkey TIM-3 on CHOK1 stable cell line …. Description: FACS, CHOK1-cTIM-3 cells, 0.32 nM antibody.
Assay [6] concerns the target T4, murine TIM-3 extracellular domain protein with hFc tag (mTIM-3-hFc) (mouse, UniProt Q8VIM0 29-191).
T4 construct: also called mouse TIM-3 extracellular domain protein; not shown: human IgG Fc fragment (hFc) of the pCpC vector
T4 chain: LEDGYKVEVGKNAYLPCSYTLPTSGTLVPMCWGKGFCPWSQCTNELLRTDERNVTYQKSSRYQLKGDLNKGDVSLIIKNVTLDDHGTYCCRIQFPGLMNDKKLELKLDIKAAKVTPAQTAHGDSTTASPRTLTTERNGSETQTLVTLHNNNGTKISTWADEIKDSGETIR
In words: ELISA, coated mouse TIM-3 ECD protein, 0.0667 nM antibody.

Assay [7] concerns the target T2, monkey TIM-3 extracellular domain …. Description: ELISA, coated monkey TIM-3 ECD protein, 0 nM antibody.

B1: 18D2H2 fully human TIM-3 antibody (human IgG4, kappa) (antibody, V domains shown)
VH: EVQLVESGGDLVQPGGSLRLSCAASGFTFSTYWMTWVRQAPGRGLEWVANIKQDGSAKYYVDSVKGRFTLSRDDAKNSLYLQMNSLRAEDTAVYYCARGSNWFDYWGQGTLVTVSS
VL: ETVMTQSPATLSVSPGERATLSCRANQNVYSNLAWYQQKPGQAPRLLIYDASTRATGFPARFSGSGSGTEFTLTISSLQSEDFAVYYCQQYNNWPLTFGGGTKVEIK
For the molecule B1, the Mean fluorescence intensity worked out at 2.8 in assay [1] and 127 in assay [5]. The OD450 in assay [2] turned out to be 3.16; in assay [3] it was 0.07; in assay [4], 2.78; in assay [6], 0.22; in assay [7], 0.13.

B2: 34B6D8 fully human TIM-3 antibody (human IgG4, kappa) (antibody, V domains shown)
VH: EVQLVESGGGLVQPGGSLRLSCAASGFTFSTYWMTWVRQAPGKRLEWVANIKQGGGDKYYVDSVKGRFTISTDNAKNSLYLQMNSLRAEDTAVYYCARGSNWFDPWGQGTLVTVSS
VL: EIVMTQSPATLSMSPGERATLSCRASQSVYDNLAWYQQKPGQAPRLLIYGASTRATGIPARFSGSGSGTEFTLTISSLQSEDFALYYCQQYTHWPITFGQGTRLEIK
Take B2: the Mean fluorescence intensity turned out to be 2.9 in assay [1] and 109 in assay [5]. The OD450 was 3.37 in assay [2]; 0.09 in assay [3]; 3.1 in assay [4]; 0.25 in assay [6]; 0.17 in assay [7].

B3: 39E5H1 fully human TIM-3 antibody (human IgG4, kappa) (antibody, V domains shown)
VH: EVQLVESGGGLVQPGGSLRLSCAASGFTFSSYWMSWVRQAPGKGLEWVANIKRGGSERYYVDSVKGRFTISGDNAKNSVYLQMNSLRAEDTAVYYCARGSNWFDPWGQGTLVTVSS
VL: ETVMTQSPAILSVSPGERATLSCRASQSVYSNLAWYQQKLGQAPRLLIYDASTRATGIPARFSGSGSGTEFTLTISSLQSEDFAVYYCQQYNNWPITFGQGTRLEIK
On to B3, for which the results for the Mean fluorescence intensity in assay [1] and in assay [5] were 3 and 132, respectively. Also, the OD450 in assay [2] came to 3.23; in assay [3] it was 0.08; in assay [4] it was 3.01; in assay [6], 0.24; in assay [7], 0.16.
